This is an account of results in publication PMC12221289.

Experiment in all cases: DRaCALA
In data set [1] the test system is Rcu mt-EF-Tu1 (Romanomermis culicivorax). Particulars: 3'-aminoacylated with Phe (flexizyme); DRaCALA of EF-Tu:GTP:Phe-tRNA ternary complexes, 2 ul spotted on nitrocellulose, n>=3; binding buffer, pH and temperature not in the material.
For data set [2], the target named is Bta mt-EF-Tu D384K D384K (Bos taurus) (UniProt P49410). Particulars: 3'-aminoacylated with Phe (flexizyme); DRaCALA of EF-Tu:GTP:Phe-tRNA ternary complexes, 2 ul spotted on nitrocellulose, n>=3; binding buffer, pH and temperature not in the material.
Data set [3] concerns Rcu mt-EF-Tu1 K380D/ΔC50 (Romanomermis culicivorax). Particulars: GTP; apparent Kd; 3'-aminoacylated with Phe (flexizyme); DRaCALA of EF-Tu:GTP:Phe-tRNA ternary complexes, 2 ul spotted on nitrocellulose, n>=3; binding buffer, pH and temperature not in the material.
The subject of data set [4] is Rcu mt-EF-Tu1 K380R (Romanomermis culicivorax). Particulars: 3'-aminoacylated with Phe (flexizyme); DRaCALA of EF-Tu:GTP:Phe-tRNA ternary complexes, 2 ul spotted on nitrocellulose, n>=3; binding buffer, pH and temperature not in the material.
The subject of data set [5] is Rcu mt-EF-Tu1 ΔC50 (Romanomermis culicivorax). Particulars: 3'-aminoacylated with Phe (flexizyme); DRaCALA of EF-Tu:GTP:Phe-tRNA ternary complexes, 2 ul spotted on nitrocellulose, n>=3; binding buffer, pH and temperature not in the material.
Data set [6] deals with Tbr mt-EF-Tu1 (Trichinella britovi). Particulars: 3'-aminoacylated with Phe (flexizyme); DRaCALA of EF-Tu:GTP:Phe-tRNA ternary complexes, 2 ul spotted on nitrocellulose, n>=3; binding buffer, pH and temperature not in the material.
Data set [7] deals with Rcu mt-EF-Tu1 ΔC15 (Romanomermis culicivorax). Particulars: GTP; apparent Kd; 3'-aminoacylated with Phe (flexizyme); DRaCALA of EF-Tu:GTP:Phe-tRNA ternary complexes, 2 ul spotted on nitrocellulose, n>=3; binding buffer, pH and temperature not in the material.
For data set [8], the system named is Tbr mt-EF-Tu1 S381K (Trichinella britovi). Particulars: 3'-aminoacylated with Phe (flexizyme); DRaCALA of EF-Tu:GTP:Phe-tRNA ternary complexes, 2 ul spotted on nitrocellulose, n>=3; binding buffer, pH and temperature not in the material.
Data set [9] relates to Rcu mt-EF-Tu1 K380E (Romanomermis culicivorax). Particulars: 3'-aminoacylated with Phe (flexizyme); DRaCALA of EF-Tu:GTP:Phe-tRNA ternary complexes, 2 ul spotted on nitrocellulose, n>=3; binding buffer, pH and temperature not in the material.
Data set [10] concerns Cel mt-EF-Tu1 (Caenorhabditis elegans). Particulars: 3'-aminoacylated with Phe (flexizyme); DRaCALA of EF-Tu:GTP:Phe-tRNA ternary complexes, 2 ul spotted on nitrocellulose, n>=3; binding buffer, pH and temperature not in the material.
The subject of data set [11] is Rcu mt-EF-Tu1 K380D (Romanomermis culicivorax). Particulars: 3'-aminoacylated with Phe (flexizyme); DRaCALA of EF-Tu:GTP:Phe-tRNA ternary complexes, 2 ul spotted on nitrocellulose, n>=3; binding buffer, pH and temperature not in the material.
Data set [12] has as its system Tbr mt-EF-Tu1 S381D (Trichinella britovi). Particulars: 3'-aminoacylated with Phe (flexizyme); DRaCALA of EF-Tu:GTP:Phe-tRNA ternary complexes, 2 ul spotted on nitrocellulose, n>=3; binding buffer, pH and temperature not in the material.
For data set [13], the system named is Rcu mt-EF-Tu1 ΔC18 (Romanomermis culicivorax). Particulars: 3'-aminoacylated with Phe (flexizyme); DRaCALA of EF-Tu:GTP:Phe-tRNA ternary complexes, 2 ul spotted on nitrocellulose, n>=3; binding buffer, pH and temperature not in the material.
In data set [14] the test system is Cel mt-EF-Tu1 K386D (Caenorhabditis elegans). Particulars: 3'-aminoacylated with Phe (flexizyme); DRaCALA of EF-Tu:GTP:Phe-tRNA ternary complexes, 2 ul spotted on nitrocellulose, n>=3; binding buffer, pH and temperature not in the material.
In data set [15] the target is Bta mt-EF-Tu D384A D384A (Bos taurus) (UniProt P49410). Particulars: 3'-aminoacylated with Phe (flexizyme); DRaCALA of EF-Tu:GTP:Phe-tRNA ternary complexes, 2 ul spotted on nitrocellulose, n>=3; binding buffer, pH and temperature not in the material.
The test system of data set [16] is Rcu mt-EF-Tu1 ΔC3 (Romanomermis culicivorax). Particulars: 3'-aminoacylated with Phe (flexizyme); DRaCALA of EF-Tu:GTP:Phe-tRNA ternary complexes, 2 ul spotted on nitrocellulose, n>=3; binding buffer, pH and temperature not in the material.
Data set [17] has as its system Rcu mt-EF-Tu1 region F chimera (Romanomermis culicivorax). Particulars: 3'-aminoacylated with Phe (flexizyme); DRaCALA of EF-Tu:GTP:Phe-tRNA ternary complexes, 2 ul spotted on nitrocellulose, n>=3; binding buffer, pH and temperature not in the material.
For data set [18], the system named is Rcu mt-EF-Tu1 K380A (Romanomermis culicivorax). Particulars: 3'-aminoacylated with Phe (flexizyme); DRaCALA of EF-Tu:GTP:Phe-tRNA ternary complexes, 2 ul spotted on nitrocellulose, n>=3; binding buffer, pH and temperature not in the material.

“AGUCAAAUAGCUUAACCUUAAAGCACAAAUCUUUUAAAUUUGAAGAUGUAUCCACUUUGACUACCA [Phe-mt-tRNALys (T-armless)]”: the Kd in data set [1] worked out at 5.2 nM.

In data set [1], “GCGGAUUUAGCUCAGUUGGGAGAGCGCCAGACUGAAGAUCUGGAGGUCCUGUGUUCGAUCCACAGAAUUCGCACCA [Phe-tRNAPhe (canonical)]” yielded a Kd of 22.6 nM.

As to Phe-mt-tRNAIle (armless), the Kd in [2] amounted to 96.8 nM; in data set [3] it was 350 nM; in data set [4], 16.5 nM; in data set [6] it was 4.4 nM; in [7] it was 40.7 nM; in [8] it was 3 nM. Also, the Kd in data set [9] was 150 nM; in data set [10], 17.1 nM; in data set [11], 70.4 nM; in data set [12] it was 7.1 nM; in data set [14] it was 62.6 nM; in data set [1], 5.8 nM. Moreover, the Kd in [15] worked out at 60.1 nM; in data set [17] it was 222 nM; in [18] it was 33.4 nM. For the same substance, the fold Kd increase vs wild type (fold Kd increase vs wt) in data set [5] came to 14; in data set [13] it was 8.7; in data set [16] it was 1.5.

In turn, Phe-mt-tRNASer(UCU) (D-armless) returned a Kd in data set [1] of 66.4 nM.
